Data on two molecules can be found in PMC10073072 (2023).

The target of test [1] is METTL9^M6 (METTL9^46–318 with six mutations) (human, UniProt Q9H1A3 46-318). Description: ITC.
The next test has as its target METTL9^46–318 (human, UniProt Q9H1A3 46-318). Nature of the test: ITC.

METTL9^M6 (METTL9^46–318 with six mutations), sequence (Q9H1A3 other isoform, or with tags, fused parts or gaps): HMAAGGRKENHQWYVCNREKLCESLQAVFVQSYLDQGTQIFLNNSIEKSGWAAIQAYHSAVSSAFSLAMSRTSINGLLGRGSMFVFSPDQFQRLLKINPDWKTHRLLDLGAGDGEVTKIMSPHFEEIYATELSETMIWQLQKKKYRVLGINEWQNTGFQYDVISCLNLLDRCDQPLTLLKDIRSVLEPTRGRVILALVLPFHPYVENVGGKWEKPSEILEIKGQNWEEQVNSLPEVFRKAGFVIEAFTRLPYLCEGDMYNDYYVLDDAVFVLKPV
METTL9^46–318, sequence (Q9H1A3 46-318): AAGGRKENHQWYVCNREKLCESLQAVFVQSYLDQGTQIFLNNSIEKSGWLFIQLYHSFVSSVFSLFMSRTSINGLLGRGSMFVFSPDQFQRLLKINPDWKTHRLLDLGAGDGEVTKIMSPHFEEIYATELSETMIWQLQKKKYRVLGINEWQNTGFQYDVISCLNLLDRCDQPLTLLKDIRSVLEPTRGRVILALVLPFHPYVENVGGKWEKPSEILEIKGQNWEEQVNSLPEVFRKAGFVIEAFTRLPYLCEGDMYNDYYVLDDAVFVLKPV

Consider GHQGHSHGHQGGY [SLC39A5^369–380 peptide], for which the dissociation constant Kd in test [1] came out at 9 µM; with METTL9^46–318, 9.3 µM.
The matching figures for RGHGHSHGKGC [mouse S100A9^101–111 peptide]: 3.6 µM and 2.3 µM.
